Test results published in the supplement of paper PMC9732359.
± gives the uncertainty stated by the source.

Test: protein stability index of a GFP-peptide fusion (yeast GPS) (PSI 1-4); higher = more stable; sorted into four equal gates, so the index is relative within each strain
Outline: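 For each peptide, the protein stability index sums the read frequency in every gate after multiplying it by the gate number. Read frequencies came from plasmids that were PCR-amplified from each gate and Illumina-sequenced, with reads assigned to strains by barcodes. The gates were four equal bins of GFP/Cherry fluorescence ratio applied to mid-log yeast in leucine-free medium carrying a pooled library of tiled 17-residue yeast protein peptides fused downstream of GFP on a Cherry-expressing plasmid.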

Sequence | protein stability index (doa10∆) | protein stability index (pdr5∆) | protein stability index (san1∆) | protein stability index (ubr1∆)
NPSNTPDKDYLLSIPIS [FAS1] | 2.89 ± 0.078 | 3.1 ± 0.079 | 2.88 ± 0.054 | 2.82 ± 0.066
NQEDEKNLQRESCEDIL [RTT102] |  |  |  | 3.17 ± 0.2
NQEDLFELVHHFFQIDG [YML103C/NUP188] | 2.97 ± 0.079 | 3.04 ± 0.065 | 2.85 ± 0.081 | 2.68 ± 0.051
NQLDGFDDRGDVKVIMA [RPT2] | 3.47 ± 0.17 | 3.44 ± 0.27 | 3.09 ± 0.1 | 3.52 ± 0.17
NQNSDMKKKLELISYRN [SRB8] | 2.91 ± 0.048 | 3.04 ± 0.059 | 2.93 ± 0.051 | 3.08 ± 0.04
NQVTDSSQLNKLTDEQS [SIR3] | 2.71 ± 0.063 | 2.74 ± 0.069 | 2.82 ± 0.07 | 2.68 ± 0.072
NRAEGPEELARILQQLK [RGR1] | 3.21 ± 0.11 | 3.17 ± 0.19 | 3.19 ± 0.12 | 3.62 ± 0.097
NRDRSFQLLEPLSTYNK [PGD1] | 3 ± 0.051 | 2.95 ± 0.062 | 2.93 ± 0.053 | 2.72 ± 0.045
NREAATKEVESNIITKS [DIS3] | 2.79 ± 0.11 | 2.94 ± 0.064 | 2.79 ± 0.074 | 2.87 ± 0.089
NRRLVYSRILKSMGRKC [YCG1] | 1.41 ± 0.12 | 1.17 ± 0.084 | 1.3 ± 0.2 | 1.14 ± 0.067
NRSAYDSKNTPNVFDKD [YDL088C/ASM4] | 2.41 ± 0.1 | 2.72 ± 0.075 | 2.9 ± 0.074 | 2.92 ± 0.091
NRSWDHAYNITFNNQDK [RPO31] | 2.75 ± 0.073 | 2.82 ± 0.061 | 2.7 ± 0.071 | 2.97 ± 0.042
NRWHSESWANQLTVCGA [FAS2] | 1.93 ± 0.04 | 1.87 ± 0.053 | 1.8 ± 0.086 | 1.86 ± 0.042
NSAQNNSTTSGGLFGNK [YGR119C/NUP57] | 3.25 ± 0.13 | 2.91 ± 0.13 | 3.2 ± 0.073 | 3.24 ± 0.17
NSDDCMMEEIINVVIKA [ECM29] | 3.31 ± 0.14 | 3.67 ± 0.18 | 3.14 ± 0.11 | 2.97 ± 0.11
NSDLEGKIRGVEDDLVT [SMC2] | 3.14 ± 0.094 | 3.33 ± 0.064 | 3.15 ± 0.067 | 3.24 ± 0.051
NSEKFVFLLTTRAGGLG [ISW2] | 1.67 ± 0.26 | 1.4 ± 0.13 | 1.11 ± 0.11 | 1.51 ± 0.12
NSFKLFKAEKLQIVNQL [RPC17] | 2.82 ± 0.077 | 2.32 ± 0.076 | 1.85 ± 0.16 | 2.13 ± 0.056
NSFTKGNVFSPIDNNII [SNU114] | 2.98 ± 0.093 | 2.92 ± 0.074 | 2.83 ± 0.081 | 2.95 ± 0.058
NSGVGSAKGPEIIPLQD [MED6] | 3.35 ± 0.16 | 3.21 ± 0.088 | 3.16 ± 0.071 | 3.23 ± 0.064
NSKVDMKYDIFAKFIHH [IRR1] | 2.39 ± 0.083 | 2.15 ± 0.077 | 2.31 ± 0.071 | 2.47 ± 0.054
NSKVNKLNIETMRKISS [DSN1] | 2.5 ± 0.17 | 2.43 ± 0.11 | 2.13 ± 0.12 | 2.95 ± 0.07
NSLTKYPDLKAFHNNLK [MED1] | 2.9 ± 0.11 | 3.16 ± 0.089 | 2.89 ± 0.092 | 2.93 ± 0.062
NSLTVDGNNANYIYAGY [RPN14] | 2.87 ± 0.088 | 2.55 ± 0.078 | 2.42 ± 0.092 | 2.85 ± 0.049
NSNPTSNVFGSNNSTTN [YJL041W/NSP1] | 3.23 ± 0.079 | 3.43 ± 0.086 | 3.16 ± 0.055 | 3.46 ± 0.066
NSPNYFVAKLAAQIFGS [COR1] | 1.84 ± 0.044 | 2.02 ± 0.061 | 1.68 ± 0.08 | 2.12 ± 0.049
NSQTVSGTPITQTESKK [SNF2] | 2.67 ± 0.05 | 2.27 ± 0.05 | 2.7 ± 0.053 | 2.39 ± 0.039

Sequence | protein stability index (doa10∆) | protein stability index (pdr5∆) | protein stability index (san1∆) | protein stability index (ubr1∆)
NSSMRYGYWFDCRMGNF [AAR2] |  |  | 1.83 ± 0.12 | 
NSTTSGGLFGNKVGSTG [YGR119C/NUP57] | 3.17 ± 0.13 | 3.47 ± 0.19 | 3.21 ± 0.071 | 3.29 ± 0.17
NSYWLIILLGVLEDCRH [ITC1] | 1.42 ± 0.061 | 1.53 ± 0.048 | 2.44 ± 0.083 | 2.36 ± 0.057
NTCYLNATLQALYRVND [UBP6] | 2.25 ± 0.07 | 2.59 ± 0.069 | 2.69 ± 0.063 | 2.5 ± 0.055
NTGPSTGGLFGAKPAGS [YGL172W/NUP49] | 3.43 ± 0.12 | 3.32 ± 0.11 | 2.67 ± 0.17 | 
NTIGSVHGKAPMLMANN [SSN3] | 1.54 ± 0.18 | 1.54 ± 0.11 | 1.48 ± 0.19 | 1.89 ± 0.19
NTNNNDTIATSATPNAA [GAL11] | 2.7 ± 0.046 | 2.88 ± 0.046 | 2.59 ± 0.044 | 2.74 ± 0.043
NTSLPPSILEDSLENNE [FAS1] | 2.89 ± 0.11 | 2.98 ± 0.11 | 3.11 ± 0.095 | 2.81 ± 0.079
NTTLQDNVSFIEEAKSI [REC8] | 3.1 ± 0.084 | 3.22 ± 0.091 | 3.23 ± 0.064 | 3.17 ± 0.066
NVDRLYKLNVRSNDPQS [NUT2] | 3.22 ± 0.11 | 3.2 ± 0.084 | 3.27 ± 0.065 | 3.39 ± 0.089
NVEKYPTFVEFILIPLY [SNU114] | 2.33 ± 0.052 | 2.46 ± 0.054 | 2.04 ± 0.069 | 2.65 ± 0.053
NVELLNCIRILADKLEN [YIL149C/MLP2] | 1.22 ± 0.069 | 1.36 ± 0.074 | 1.06 ± 0.13 | 1.2 ± 0.045
NVESAGAMTPEEIFFKS [RPC40] | 3.04 ± 0.074 | 3.31 ± 0.085 | 3.17 ± 0.054 | 3.27 ± 0.045
NVIKTGIRIISLTYKKI [RPN3] | 1.83 ± 0.1 | 2.25 ± 0.081 | 1.99 ± 0.12 | 2.2 ± 0.042
NVISSKDWELEARFWHL [YDL116W/NUP84] | 3.46 ± 0.096 | 3.32 ± 0.062 | 3.43 ± 0.066 | 3.25 ± 0.068
NVKEEETVAKSKNAERK [RPS8A] | 3.07 ± 0.038 | 3.09 ± 0.035 | 3.215 ± 0.022 | 3.001 ± 0.029
NVLIGGYDKKKNKPELY [PRE1] |  | 2.53 ± 0.27 |  | 2.74 ± 0.27
NVLNQIHQILLPTNPTL [CSE2] | 2.65 ± 0.036 | 2.74 ± 0.037 | 2.14 ± 0.05 | 2.42 ± 0.035
NVVIDEAVEIPVNSADG [SME1] | 2.97 ± 0.084 | 3.35 ± 0.068 | 3.24 ± 0.041 | 2.98 ± 0.045
NVVLVTNDRLNREAATK [DIS3] | 2.33 ± 0.086 | 2.9 ± 0.088 | 1.89 ± 0.21 | 2.37 ± 0.074
NVVVKWQGKPVFIRHRT [RIP1] | 3.35 ± 0.25 |  | 3.41 ± 0.07 | 2.88 ± 0.27
NWWHSEFEIPVSFNGFK [BRR2] | 1.49 ± 0.098 | 1.32 ± 0.068 | 1.14 ± 0.17 | 1.34 ± 0.058
NYESVFTYNKFLLNQNK [YIL149C/MLP2] | 1.47 ± 0.045 | 1.92 ± 0.049 | 2.24 ± 0.1 | 2.26 ± 0.049
NYGEKEERKRWAMQGIS [PCI8] | 2.92 ± 0.14 | 2.52 ± 0.24 |  | 
NYSSLPSPYKTTVYRYS [YAR002W/NUP60] | 2.04 ± 0.045 | 2.27 ± 0.038 | 1.71 ± 0.057 | 1.91 ± 0.034
PAALDGLMKSYKIPKVM [ESC2] | 2.76 ± 0.068 | 2.94 ± 0.12 | 2.85 ± 0.061 | 3.45 ± 0.088
PAANESEVANNGLIISW [RRP42] | 1.43 ± 0.15 | 1.49 ± 0.052 | 1.13 ± 0.28 | 1.4 ± 0.072
